From patent US20150118698A1

Target: monoclonal antibody NB206-15B6-F8, raised against MMCN-151 antigen
Test: competitive ELISA on Biotin-… coated plate

- OD (450-650), signal at full inhibition: 0.5 OD (450-650)
- OD (450-650), signal without inhibition: 2 OD (450-650)
Binder: EDIEDGTFSK [synthetic free peptide … (MMCN-151)]
